Test results taken from doi:10.1101/2019.12.23.887380v2.
Where a chain is given by its changes, count along the chain named. In names and notes the source's numbering stands.

Substrate: O=[N+]([O-])c1ccc(O[C@@H]2O[C@H](CO)[C@@H](O)[C@H](O)[C@H]2O)cc1
Assay: purified protein
[1] = WT-1 preparation, absorbance followed 1 h
[2] = tested with WT-1, error exceeds value, poorly determined fit

B1: β-glucosidase B (BglB) (Paenibacillus polymyxa) (protein)
chain: MSENTFIFPATFMWGTSTSSYQIEGGTDEGGRTPSIWDTFCQIPGKVIGGDCGDVACDHFHHFKEDVQLMKQLGFLHYRFSVAWPRIMPAAGIINEEGLLFYEHLLDEIELAGLIPMLTLYHWDLPQWIEDEGGWTQRETIQHFKTYASVIMDRFGERINWWNTINEPYCASILGYGTGEHAPGHENWREAFTAAHHILMCHGIASNLHKEKGLTGKIGITLNMEHVDAASERPEDVAAAIRRDGFINRWFAEPLFNGKYPEDMVEWYGTYLNGLDFVQPGDMELIQQPGDFLGINYYTRSIIRSTNDASLLQVEQVHMEEPVTDMGWEIHPESFYKLLTRIEKDFSKGLPILITENGAAMRDELVNGQIEDTGRHGYIEEHLKACHRFIEEGGQLKGYFVWSFLDNFEWAWGYSKRFGIVHINYETQERTPKQSALWFKQMMAKNGF
Km [1]: 5.4 ± 0.88 mM
kcat [1]: 37.19 ± 3.36 min⁻¹

B2: β-glucosidase B (BglB) (Paenibacillus polymyxa; Q22T) (protein)
chain: B1 chain with Q22T
Km [2]: 99.02 ± 247.88 mM
kcat [2]: 0.26 ± 0.06 min⁻¹

B3: β-glucosidase B (BglB) (Paenibacillus polymyxa; W123R) (protein)
chain: B1 chain with W123R
Km [2]: 49.63 ± 324.02 mM
kcat [2]: 0.015 ± 0.08 min⁻¹

B4: β-glucosidase B (BglB) (Paenibacillus polymyxa; F155G) (protein)
chain: B1 chain with F155G
Km (tested with WT-1): 6.10 mM
kcat (tested with WT-1): 18.56 min⁻¹

B5: β-glucosidase B (BglB) (Paenibacillus polymyxa; W438D) (protein)
chain: B1 chain with W438D
Km (tested with WT-2): 10.28 ± 2.14 mM
kcat (tested with WT-2): 10.59 ± 1.65 min⁻¹

B6: β-glucosidase B (BglB) (Paenibacillus polymyxa; Y169M) (protein)
chain: B1 chain with Y169M
Km (tested with WT-2): 22.2 ± 5.53 mM
kcat (tested with WT-2): 50.57 ± 13.63 min⁻¹

B7: β-glucosidase B (BglB) (Paenibacillus polymyxa; V401A) (protein)
chain: B1 chain with V401A
Km (tested with WT-2): 8.27 ± 1.24 mM
kcat (tested with WT-2): 20.46 ± 1.29 min⁻¹
